Reference: patent publication US20140242093A1, “METHODS AND COMPOSITIONS FOR MODULATING THE INNATE IMMUNE RESPONSE AND/OR MYOGENESIS IN A MAMMALIAN SUBJECT” (FRED HUTCHINSON CANCER RESEARCH CENTER, priority 2011, published 2014)

System: control human primary myoblasts
Assay: Expression microarray of primary myoblasts transduced with lentivirus carrying DUX4-fl, DUX4-s or GFP
Protocol: Primary human myoblasts were collected and cultured as previously described (Snider et al., 2010). Primary myoblasts were maintained at or below 70% confluency for proliferation. For differentiation, cells were allowed to reach 95-100% confluency in growth medium. Once confluency was reached, the cells were changed to differentiation medium (F10 media supplemented with 1% horse serum, 10 μg/mL insulin, and 10 μg/mL transferrin, penicillin/streptomycin) and maintained for 4 days. Human RD cells were grown in DMEM in 10% bovine calf serum (Hyclone) and penicillin/streptomycin. The primary myoblasts were transduced with lentivirus carrying DUX-fl, DUX4- or GFP (MOI=15).
Expression microarrays were performed on the transduced cells at 24 hours after transduction as follows. […] Samples were analyzed by Illumina Human Whole Genome microarrays. Probe intensities were corrected, normalized, and summarized by the Lumi package of Bioconductor (Du et al., 2008). Differentially expressed genes were identified by the LIMMA package of Bioconductor (Wettenhall and Smyth, 2004). Gene set enrichment analysis (GSEA) was performed using the Bioconductor GOstats package (Falcon and Gentleman, 2007).

B1: DUX4-s: short splice form of DUX4 (SEQ ID NO:112), keeps the double-homeobox domains, lacks the C-terminal activation domain (protein, listed as Homo sapiens)
chain: MALPTPSDSTLPAEARGRGRRRRLVWTPSQSEALRACFERNPYPGIATRERLAQAIGIPEPRVQIWFQNERSRQLRQHRRESRPWPGRRGPPEGRRKRTAVTGSQTALLLRAFEKDRFPGIAAREELARETGLPESRIQIWFQNRRARHPGQGGRAPAQV
- PRAMEF19 expression fc (Refseq NM_001099790.1): −0.03732
- PRAMEF20 expression fc (Refseq NM_001099852.1): −0.003632
- PRAMEF14 expression fc (Refseq NM_001099854.1): −0.1694
- PRAMEF21 expression fc (Refseq NM_001100114.1): −0.06827
- LOC729384 expression fc (Refseq NM_001105522.1): −0.07068
- KHDC1L expression fc (Refseq NM_001126063.2): −0.07068
- CSAG3 expression fc (Refseq NM_001129826.1): 0.09074
- LOC399940 expression fc (Refseq NM_001136118.1): −0.03724
- LOC440563 expression fc (Refseq NM_001136561.1): 0.07051
- FAM90A7 expression fc (Refseq NM_001136572.1): −0.2137
- CYCSL1 expression fc (Refseq NR_001561.1): 0.3733
- MGC10997 expression fc (Refseq NR_001565.1): −0.2936
- FTHL3 expression fc (Refseq NR_002201.1, cultured human skeletal muscle): 0.4498
- FTHL11 expression fc (Refseq NR_002204.1, cultured human skeletal muscle): 0.6004
- FTHL12 expression fc (Refseq NR_002205.1, cultured human skeletal muscle): 0.3871
- RPPH1 expression fc (Refseq NR_002312.1): 0.2269
- RFPL1S expression fc (Refseq NR_002727.1): 0.1147
- SNORD56 expression fc (Refseq NR_002739.1): −0.1657
- fc of TRIM78P (expression array) (Refseq NR_002777.2): 1.698
- HNRPA1L-2 expression fc (Refseq NR_002944.2): −0.898
- RMRP expression fc (Refseq NR_003051.2): 0.07334
- fc of LOC400759 (expression array) (Refseq NR_003133.1): 1.032
- HNRPDL expression fc (Refseq NR_003249.1): 0.01689
- SDHALP1 expression fc (Refseq NR_003264.1): 0.1225
- RN5S9 expression fc (Refseq NR_023371.1): 0.7616
- KIAA0114 expression fc (Refseq NR_024031.1): −0.316
- NCRNA00092 expression fc (Refseq NR_024129.1): −0.1123
- MIR503 expression fc (Refseq NR_030228.1): −0.1361
- MIR2278 expression fc (Refseq NR_031755.1): 0.09768
- USP41 fc (Refseq XM_036729.5): 0.5246
- TRIM64 expression fc (Refseq XM_061890.11): −0.174
- LOC136157 expression fc (Refseq XM_069743.3): 0.05271
- LOC196120 expression fc (Refseq XM_114987.3): 0.05191
- LOC646066 expression fc (Refseq XM_116384.2): −0.02686
- LOC284428 expression fc (Refseq XM_208203.5): −0.09941
- LOC285697 expression fc (Refseq XM_210642.1): −0.06561
- LOC342934 expression fc (Refseq XM_292724.5): −0.06005
- LOC340096 expression fc (Refseq XM_293943.2): −0.07893
- LOC389633 expression fc (Refseq XM_372030.4): −0.0852
- LOC390031 expression fc (Refseq XM_372343.1): −0.1097
- LOC390530 fc (Refseq XM_372543.2): 0.1083
- LOC391045 expression fc (Refseq XM_372780.3): 0.3531
- LOC391092 expression fc (Refseq XM_372792.2): 0.1107
- LOC391742 expression fc (Refseq XM_373056.1): 0.1596
- LOC391747 expression fc (Refseq XM_373059.2): −0.1049
- LOC391761 expression fc (Refseq XM_373073.2): −0.05894
- LOC391764 expression fc (Refseq XM_373076.3): 0.1211
- LOC391766 expression fc (Refseq XM_373077.2): −0.05537
- LOC391767 expression fc (Refseq XM_373078.1): 0.05542
- LOC399937 expression fc (Refseq XM_374917.3): 0.0007914
- LOC399939 expression fc (Refseq XM_374919.3): −0.06731
- LOC401860 expression fc (Refseq XM_377445.3): −0.1342
- LOC402199 expression fc (Refseq XM_377875.2): 0.0817
- LOC646103 expression fc (Refseq XM_377879.3): −0.1387
- LOC402207 expression fc (Refseq XM_377884.2): −0.01834
- LOC440040 expression fc (Refseq XM_495873.4): 0.08128
- FAM90A9 expression fc (Refseq XM_496956.4): 0.01693
- FAM90A12 expression fc (Refseq XM_496961.3): 0.04824
- LOC441584 expression fc (Refseq XM_497258.1): −0.1442
- LOC441019 expression fc (Refseq XM_498969.2, cultured human skeletal muscle): 0.2625
- PEG10 expression fc (Refseq XM_499343.2): −0.09718
- LOC642362 expression fc (Refseq XM_925891.1): −0.0147
- LOC642538 expression fc (Refseq XM_926027.2): 0.1258
- LOC653111 expression fc (Refseq XM_926073.2): −0.09966
- LOC642843 expression fc (Refseq XM_926241.2): −0.05848
- LOC653192 expression fc (Refseq XM_926437.2): −0.03932
- LOC653194 expression fc (Refseq XM_926449.1): −0.01762
- LOC643731 expression fc (Refseq XM_927019.1): −0.0009314
- LOC653506 fc (Refseq XM_927769.1): 0.01748
- LOC645137 expression fc (Refseq XM_928167.2): −0.1524
- fc of LOC653583 (expression array) (Refseq XM_928224.2): 0.1005
- LOC645373 expression fc (Refseq XM_928412.1): −0.06602
- LOC645558 expression fc (Refseq XM_928577.2): −0.04868
- LOC645669 expression fc (Refseq XM_928680.1): 0.08754
- LOC653656 expression fc (Refseq XM_928688.3): −0.1419
- LOC653657 expression fc (Refseq XM_928697.2): 0.186
- LOC646698 expression fc (Refseq XM_929644.2): 0.1105
- LOC646754 expression fc (Refseq XM_929704.2): −0.1486
- LOC646914 expression fc (Refseq XM_929877.1): −0.02473
- fc of LOC338758 (expression array) (Refseq XM_931359.2): −0.07166
- LOC644739 fc (Refseq XM_933679.1): −0.07399
- LOC642127 expression fc (Refseq XM_936272.2): 0.04199
- LOC642219 expression fc (Refseq XM_936370.2): 4.39E−05
- LOC285299 expression fc (Refseq XM_936463.2): −0.03458
- fc of BEXL1 (expression array) (Refseq XM_936467.2): −0.1528
- LOC653978 expression fc (Refseq XM_937424.1): 0.1928
- LOC646508 expression fc (Refseq XM_937570.1): −0.04201
- LOC648533 expression fc (Refseq XM_937587.1): 0.03736
- LOC342933 expression fc (Refseq XM_938208.2): −0.1021
- PRAMEF17 expression fc (Refseq XM_938420.2): 0.1008
- fc of LOC649425 (expression array) (Refseq XM_938508.1): 2.539
- LOC649563 expression fc (Refseq XM_938635.2): −0.06114
- LOC650167 expression fc (Refseq XM_939249.1): 0.04811
- LOC654101 expression fc (Refseq XM_939354.1): 0.09479
- MGC61598 expression fc (Refseq XM_939432.1): 0.09581
- LOC651308 expression fc (Refseq XM_940443.1): 0.03906
- ZC3H5 fc (Refseq XM_940903.2): 0.09652
- LOC651816 expression fc (Refseq XM_941060.1): −0.5388
- LOC652080 expression fc (Refseq XM_941404.1): 0.1734
- LOC652349 expression fc (Refseq XM_941777.1): 0.01696
- LOC652433 expression fc (Refseq XM_941875.1): −0.03197
- LOC651390 expression fc (Refseq XM_942401.1): −0.07746
- LOC727846 expression fc (Refseq XM_001126140.1): 0.003662
- LOC730278 fc (Refseq XM_001126471.1): 0.1899
- PARP10 expression fc (Refseq XM_001127571.1, cultured human skeletal muscle): 0.5424
- fc of LOC730996 (expression array) (Refseq XM_001128017.1): 1.049
- LOC342900 expression fc (Refseq XM_001129035.1): 0.1315
- LOC729368 expression fc (Refseq XM_001130065.2): −0.06002
- LOC729458 expression fc (Refseq XM_001130308.2): 0.008126
- LOC729694 expression fc (Refseq XM_001131061.1): −0.1655
- LOC729698 expression fc (Refseq XM_001131072.1): −0.06572
- LOC729700 expression fc (Refseq XM_001131081.1): −0.184
- LOC729706 expression fc (Refseq XM_001131091.1): −0.01626
- LOC729724 expression fc (Refseq XM_001131132.1): 0.1112
- LOC729731 expression fc (Refseq XM_001131140.1): 0.09881
- LOC728450 expression fc (Refseq XM_001131473.2): 0.1347
- RFNG fc (Refseq XM_001132711.1): −0.2183
- LOC732416 expression fc (Refseq XM_001133386.1): 0.05578
- THOC4 expression fc (Refseq XM_001134346.1): −0.1896
- PRAMEF15 expression fc (Refseq XM_001713659.1): −0.05867
- LOC100131392 expression fc (Refseq XM_001713681.1): −0.007104
- LOC100132564 expression fc (Refseq XM_001713808.1): 0.401
- LOC391769 expression fc (Refseq XM_001713901.1): 0.152
- PRAMEF13 expression fc (Refseq XM_001713933.1): 0.1179
- PRAMEF11 expression fc (Refseq XM_001714028.1): 0.1217
- fc of LOC285296 (expression array) (Refseq XM_001714301.1): 0.8246
- LOC100133588 expression fc (Refseq XM_001714755.1): 0.03978
- CTGLF7 expression fc (Refseq XM_001714786.1): −0.2949
- LOC100129630 expression fc (Refseq XM_001714940.1): −0.1038
- LOC391763 expression fc (Refseq XM_001715080.1): 0.09287
- LOC642446 expression fc (Refseq XM_001717781.1): 0.1879
- LOC100133446 expression fc (Refseq XM_001717965.1): 0.1161
- LOC100129165 fc (Refseq XM_001718314.1): 0.2245
- LOC643336 expression fc (Refseq XM_001718563.1): 1.023
- LOC100129053 expression fc (Refseq XM_001718702.1): 0.09951
- LOC100130652 expression fc (Refseq XM_001719052.1): 0.105
- RFPL4A expression fc (Refseq XM_001719234.1): −0.09032
- LOC728809 fc (Refseq XM_001719546.1): 0.02213
- LOC100134199 expression fc (Refseq XM_001719549.1): 0.03252
